Test results published in patent US20110008345A1 (GlaxoSmithKline, published 2011).
Substitutions are numbered along the chain they refer to. Values belong to the binder of their own block, whether it stands above or below them.

Key:
[1] = target: T1, Recombinant Human HGF R (c-MET)/Fc Chimera (human, UniProt P08581 25-932); assay: ELISA
T1 construct: bought; also called HGF receptor

recombinant human VEGF = target: T2, recombinant human VEGF (human, UniProt P15692-4 27-191); assay: ELISA
T2 construct: also called VEGF165; hVEGF165

VEGF R2 (VEGF receptor) = target: T3, VEGF R2 (VEGF receptor) (human, UniProt P35968 20-764); assay: ELISA
T3 construct: bought; construct not described
T3 sequence (P35968 20-764 limits assumed): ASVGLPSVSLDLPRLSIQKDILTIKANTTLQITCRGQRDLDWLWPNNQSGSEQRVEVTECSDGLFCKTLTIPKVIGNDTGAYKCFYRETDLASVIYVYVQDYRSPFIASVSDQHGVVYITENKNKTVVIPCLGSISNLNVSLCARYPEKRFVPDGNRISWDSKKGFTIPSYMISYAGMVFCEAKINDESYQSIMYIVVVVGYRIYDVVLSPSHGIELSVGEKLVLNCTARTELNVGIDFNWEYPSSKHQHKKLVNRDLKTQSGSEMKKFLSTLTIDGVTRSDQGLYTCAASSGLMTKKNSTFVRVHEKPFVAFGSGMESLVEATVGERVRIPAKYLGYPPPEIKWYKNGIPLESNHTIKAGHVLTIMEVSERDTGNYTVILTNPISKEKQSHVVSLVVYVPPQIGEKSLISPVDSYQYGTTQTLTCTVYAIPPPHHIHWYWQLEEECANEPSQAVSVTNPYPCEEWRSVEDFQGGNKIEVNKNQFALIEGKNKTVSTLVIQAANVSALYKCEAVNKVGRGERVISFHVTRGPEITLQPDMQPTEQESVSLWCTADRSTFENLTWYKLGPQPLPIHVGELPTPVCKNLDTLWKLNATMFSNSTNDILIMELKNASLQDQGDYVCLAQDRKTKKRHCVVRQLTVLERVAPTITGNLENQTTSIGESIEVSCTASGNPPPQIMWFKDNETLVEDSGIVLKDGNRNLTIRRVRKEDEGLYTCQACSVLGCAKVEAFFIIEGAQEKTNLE

[2] = target: T4, CD20 on CD20 positive cell line (Wein133) (UniProt P11836 1-297, limits assumed); assay: flow cytometry, Wein133 cells
T4 construct: whole, on cells
T4 sequence (looked up): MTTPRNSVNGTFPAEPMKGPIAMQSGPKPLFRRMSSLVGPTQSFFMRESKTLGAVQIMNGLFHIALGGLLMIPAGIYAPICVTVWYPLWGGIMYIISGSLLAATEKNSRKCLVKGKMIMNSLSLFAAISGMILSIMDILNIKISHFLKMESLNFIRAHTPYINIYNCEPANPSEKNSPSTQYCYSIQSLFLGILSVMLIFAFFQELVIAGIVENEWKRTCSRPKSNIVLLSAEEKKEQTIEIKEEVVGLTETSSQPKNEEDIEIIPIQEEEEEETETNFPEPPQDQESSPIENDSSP

[3] = target: T5, recombinant E. coli-expressed human IL-13 (human, UniProt P35225 35-146); assay: SPR
T5 construct: made and purified at GSK; also called Interleukin-13; rhIL-13

[4] = target: T5, recombinant E. coli-expressed human …; assay: SPR exp 1
[5] = target: T6, recombinant E. coli-expressed cynomolgus IL-13 (cynomolgus, UniProt Q0PW92 21-132); assay: cell-based or functional assay
[6] = target: T7, recombinant E. coli-expressed cynomolgus IL-4 (cynomolgus, UniProt P79339 25-153); assay: cell-based or functional assay
T7 sequence (looked up): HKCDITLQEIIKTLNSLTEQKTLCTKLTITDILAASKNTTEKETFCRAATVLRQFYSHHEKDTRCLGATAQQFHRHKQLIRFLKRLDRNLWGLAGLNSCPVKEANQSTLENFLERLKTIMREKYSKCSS

[7] = target: T8, recombinant E. coli-expressed human IL-4 (human, UniProt P05112 25-153); assay: cell-based or functional assay
T8 sequence: T7 sequence (looked up) with K26E, I29V, L33F

[8] = target: T5, recombinant E. coli-expressed human …; assay: cell-based or functional assay
[9] = target: T5, recombinant E. coli-expressed human …; assay: ELISA, IL-13 binding to IL13Ralpha2/Fc
[10] = target: T6, recombinant E. coli-expressed …; assay: SPR
[11] = target: T7, recombinant E. coli-expressed …; assay: SPR
[12] = target: T8, recombinant E. coli-expressed human IL-4; assay: SPR exp 2
[13] = target: T5, recombinant E. coli-expressed human …; assay: SPR exp 2
[14] = target: T8, recombinant E. coli-expressed human IL-4; assay: ELISA, supernatant
[15] = target: T5, recombinant E. coli-expressed human …; assay: ELISA, supernatant
[16] = target: T5, recombinant E. coli-expressed human …; assay: SPR, no IL-4 bound
[17] = target: T8, recombinant E. coli-expressed human IL-4; assay: ELISA, IL-4 binding to IL4Ralpha-Fc
[18] = target: T8, recombinant E. coli-expressed human IL-4; assay: cell-based or functional assay; remark: listed apart in the source
[19] = target: T5, recombinant E. coli-expressed human …; assay: cell-based or functional assay; remark: listed apart in the source
[20] = target: T5, recombinant E. coli-expressed human …; assay: SPR, human IL-4 bound first
recombinant human HER2 = target: T9, recombinant human HER2 (human, UniProt P04626 23-652, limits assumed); assay: ELISA
T9 construct: bought

T1 sequence (P08581 25-932 limits assumed, change not shown): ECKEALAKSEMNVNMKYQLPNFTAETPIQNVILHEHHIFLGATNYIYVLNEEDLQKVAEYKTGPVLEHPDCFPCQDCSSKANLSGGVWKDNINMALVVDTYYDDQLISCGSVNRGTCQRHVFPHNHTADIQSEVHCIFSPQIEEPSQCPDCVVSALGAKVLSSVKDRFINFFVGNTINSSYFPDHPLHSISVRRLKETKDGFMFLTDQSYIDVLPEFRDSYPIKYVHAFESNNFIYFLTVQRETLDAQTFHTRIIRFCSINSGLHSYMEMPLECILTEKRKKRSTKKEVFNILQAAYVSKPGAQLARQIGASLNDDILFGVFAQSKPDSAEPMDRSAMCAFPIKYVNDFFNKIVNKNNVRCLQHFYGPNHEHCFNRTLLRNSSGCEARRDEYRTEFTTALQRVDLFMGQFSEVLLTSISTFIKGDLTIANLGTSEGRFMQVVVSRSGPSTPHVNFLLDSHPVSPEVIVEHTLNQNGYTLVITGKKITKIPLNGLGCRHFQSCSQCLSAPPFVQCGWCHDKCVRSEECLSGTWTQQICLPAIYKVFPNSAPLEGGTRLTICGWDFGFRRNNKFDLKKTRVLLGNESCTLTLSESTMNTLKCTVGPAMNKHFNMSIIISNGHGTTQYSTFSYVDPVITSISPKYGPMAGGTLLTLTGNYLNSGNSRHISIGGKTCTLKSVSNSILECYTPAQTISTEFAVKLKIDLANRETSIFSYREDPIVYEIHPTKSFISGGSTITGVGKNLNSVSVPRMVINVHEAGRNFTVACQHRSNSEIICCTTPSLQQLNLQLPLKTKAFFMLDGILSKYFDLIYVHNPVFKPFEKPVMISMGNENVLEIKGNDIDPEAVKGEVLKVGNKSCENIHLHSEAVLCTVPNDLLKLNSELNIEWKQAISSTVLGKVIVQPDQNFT

- binding result [1]: binds
- binding result (recombinant human VEGF): no binding
B1: BPC1019 (antibody, human IgG1, kappa)
heavy: not shown
chain: not shown
light: DIQMTQSPSSLSASVGDRVTITCKSSQSLLYTSSQKNYLAWYQQKPGKAPKLLIYWASTRESGVPSRFSGSGSGTDFTLTISSLQPEDFATYYCQQYYAYPWTFGQGTKVEIKRTVAAPSVFIFPPSDEQLKSGTASVVCLLNNFYPREAKVQWKVDNALQSGNSQESVTEQDSKDSTYSLSSTLTLSKADYEKHKVYACEVTHQGLSSPVTKSFNRGEC
notes: monovalent antibody; also called anti cMET 5D5v2 knob-into-hole

- binding result (VEGF R2 (VEGF receptor)): binds
B2: BPC1801 (bispecific antibody, human IgG1, kappa)
heavy: not shown
light: DIVMTQSPLSLPVTPGEPASISCRSSQSIVQSNGDTYLEWYLQKPGQSPQLLIYRVSNRFSGVPDRFSGSGSGTDFTLKISRVEAEDVGVYYCFQGSHVPYTFGQGTKLEIKRTVAAPSVFIFPPSDEQLKSGTASVVCLLNNFYPREAKVQWKVDNALQSGNSQESVTEQDSKDSTYSLSSTLTLSKADYEKHKVYACEVTHQGLSSPVTKSFNRGEC
notes: also called antiIGF1R Heavy Chain-GS-CT01 adnectin

- binding result (VEGF R2 (VEGF receptor)): binds
B3: BPC1802 (bispecific antibody, human IgG1, kappa)
heavy: not shown
light: B2 light

- binding result [2]: binds
- Kd [3]: 0.313 nM
- koff [3]: 0.000182 s⁻¹
- kon [3]: 581000 M⁻¹ s⁻¹
B4: BPC1401 (bispecific antibody, human IgG1, kappa)
heavy: not shown
light: QIVLSQSPAILSASPGEKVTMTCRASSSVSYIHWFQQKPGSSPKPWIYATSNLASGVPVRFSGSGSGTSYSLTISRVEAEDAATYYCQQWTSNPPTFGGGTKLEIKRTVAAPSVFIFPPSDEQLKSGTASVVCLLNNFYPREAKVQWKVDNALQSGNSQESVTEQDSKDSTYSLSSTLTLSKADYEKHKVYACEVTHQGLSSPVTKSFNRGEC

- binding result [2]: binds
- Kd [3]: 0.358 nM
- koff [3]: 0.000305 s⁻¹
- kon [3]: 852000 M⁻¹ s⁻¹
B5: BPC1402 (bispecific antibody, human IgG1, kappa)
heavy: not shown
light: B4 light
notes: also called RituxanH-GS-DOM474

- Kd [4]: 0.268 nM
- Mean ND50 (TF-1) [5]: 47.9 nM
- Mean ND50 (TF-1) [6]: 1.36 nM
- Mean ND50 (TF-1) [7]: 3.02 nM
- Mean ND50 (TF-1) [8]: 2.11 nM
- IC50 [9]: 7.41 nM
- Kd [10]: 26.7 nM
- koff [10]: 0.0129 s⁻¹
- kon [10]: 483000 M⁻¹ s⁻¹
- Kd [11]: 0.029 nM
- koff [11]: 5.3e-05 s⁻¹
- kon [11]: 1.83e+06 M⁻¹ s⁻¹
- Kd [12]: 0.011 nM
- Kd [13]: 0.305 nM
B6: PascoH-TVAAPS-474 GS removed (bispecific antibody, human IgG1, kappa)
heavy: not shown
light: DIVLTQSPSSLSASVGDRVTITCKASQSVDYDGDSYMNWYQQKPGKAPKLLIYAASNLESGIPSRFSGSGSGTDFTFTISSLQPEDIATYYCQQSNEDPPTFGQGTKVEIKRTVAAPSVFIFPPSDEQLKSGTASVVCLLNNFYPREAKVQWKVDNALQSGNSQESVTEQDSKDSTYSLSSTLTLSKADYEKHKVYACEVTHQGLSSPVTKSFNRGEC

- binding result [14]: binds
- binding result [15]: binds
B7: BPC1618 (bispecific antibody, human IgG4, kappa)
heavy: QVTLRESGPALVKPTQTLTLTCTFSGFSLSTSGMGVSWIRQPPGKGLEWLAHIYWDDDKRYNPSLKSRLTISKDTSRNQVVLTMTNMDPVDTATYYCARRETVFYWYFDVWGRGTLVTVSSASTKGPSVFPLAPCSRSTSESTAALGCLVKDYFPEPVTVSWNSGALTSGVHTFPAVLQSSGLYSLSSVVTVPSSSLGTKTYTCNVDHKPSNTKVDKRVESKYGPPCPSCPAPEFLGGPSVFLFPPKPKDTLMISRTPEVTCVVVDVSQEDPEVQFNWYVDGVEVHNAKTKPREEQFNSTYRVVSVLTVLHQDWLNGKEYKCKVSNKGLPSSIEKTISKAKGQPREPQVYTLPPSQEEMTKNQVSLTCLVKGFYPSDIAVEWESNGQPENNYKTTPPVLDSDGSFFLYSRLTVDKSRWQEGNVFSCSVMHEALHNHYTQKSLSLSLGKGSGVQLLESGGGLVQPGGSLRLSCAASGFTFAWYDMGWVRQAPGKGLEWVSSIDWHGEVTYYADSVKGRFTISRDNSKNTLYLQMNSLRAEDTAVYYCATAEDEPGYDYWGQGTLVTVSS
light: B6 light

- binding result [14]: binds
- binding result [15]: binds
B8: BPC1617 (bispecific antibody, human IgG2, kappa)
heavy: QVTLRESGPALVKPTQTLTLTCTFSGFSLSTSGMGVSWIRQPPGKGLEWLAHIYWDDDKRYNPSLKSRLTISKDTSRNQVVLTMTNMDPVDTATYYCARRETVFYWYFDVWGRGTLVTVSSASTKGPSVFPLAPCSRSTSESTAALGCLVKDYFPEPVTVSWNSGALTSGVHTFPAVLQSSGLYSLSSVVTVPSSNFGTQTYTCNVDHKPSNTKVDKTVERKCCVECPPCPAPPVAGPSVFLFPPKPKDTLMISRTPEVTCVVVDVSHEDPEVQFNWYVDGVEVHNAKTKPREEQFNSTFRVVSVLTVVHQDWLNGKEYKCKVSNKGLPAPIEKTISKTKGQPREPQVYTLPPSREEMTKNQVSLTCLVKGFYPSDIAVEWESNGQPENNYKTTPPMLDSDGSFFLYSKLTVDKSRWQQGNVFSCSVMHEALHNHYTQKSLSLSPGKGSGVQLLESGGGLVQPGGSLRLSCAASGFTFAWYDMGWVRQAPGKGLEWVSSIDWHGEVTYYADSVKGRFTISRDNSKNTLYLQMNSLRAEDTAVYYCATAEDEPGYDYWGQGTLVTVSS
light: B6 light

- Kd [16]: 0.425 nM
- koff [16]: 0.000259 s⁻¹
- kon [16]: 609000 M⁻¹ s⁻¹
- Kd [4]: 0.331 nM
- IC50 [17]: 5.14 nM
- Mean IC50 (whole blood phospho-STAT6) [18]: 7.95 nM
- Mean IC50 (whole blood phospho-STAT6) [19]: 2.78 nM
- Mean ND50 (TF-1) [5]: 39.8 nM
- Mean ND50 (TF-1) [6]: 1.89 nM
- Mean ND50 (TF-1) [7]: 2.85 nM
- Mean ND50 (TF-1) [8]: 2.27 nM
- IC50 [9]: 9.58 nM
- Kd [10]: 16.6 nM
- koff [10]: 0.011 s⁻¹
- kon [10]: 662000 M⁻¹ s⁻¹
- Kd [11]: 0.0342 nM
- koff [11]: 6.38e-05 s⁻¹
- kon [11]: 1.87e+06 M⁻¹ s⁻¹
- Kd [20]: 0.408 nM
- koff [20]: 0.000231 s⁻¹
- kon [20]: 566000 M⁻¹ s⁻¹
- Kd [12]: 0.005 nM
- Kd [13]: 0.351 nM
- Kd [3]: 0.423 nM
- koff [3]: 0.000266 s⁻¹
- kon [3]: 629000 M⁻¹ s⁻¹
B9: PascoH-474 GS removed (bispecific antibody, human IgG1, kappa)
heavy: not shown
light: B6 light

- binding result [14]: binds
- binding result [15]: binds
B10: BPC1619 (bispecific antibody, human IgG4 S228P, kappa)
heavy: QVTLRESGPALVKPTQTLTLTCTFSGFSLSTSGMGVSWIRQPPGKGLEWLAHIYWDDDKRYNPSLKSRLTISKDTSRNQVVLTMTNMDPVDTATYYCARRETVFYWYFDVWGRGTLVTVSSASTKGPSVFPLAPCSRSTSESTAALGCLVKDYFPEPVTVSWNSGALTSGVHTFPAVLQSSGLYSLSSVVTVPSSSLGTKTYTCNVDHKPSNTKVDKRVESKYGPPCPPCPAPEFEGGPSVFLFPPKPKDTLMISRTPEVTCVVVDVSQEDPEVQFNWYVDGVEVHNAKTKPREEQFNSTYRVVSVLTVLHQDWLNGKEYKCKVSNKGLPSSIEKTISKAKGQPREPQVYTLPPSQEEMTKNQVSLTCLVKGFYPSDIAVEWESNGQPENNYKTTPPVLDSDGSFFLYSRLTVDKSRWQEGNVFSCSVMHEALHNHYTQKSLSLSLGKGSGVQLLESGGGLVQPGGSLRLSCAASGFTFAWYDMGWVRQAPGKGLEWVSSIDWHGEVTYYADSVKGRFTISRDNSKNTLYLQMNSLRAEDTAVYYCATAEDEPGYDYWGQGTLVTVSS
light: B6 light

- binding result (recombinant human HER2): no binding
- binding result (recombinant human VEGF): no binding
- binding result (VEGF R2 (VEGF receptor)): no binding
B11: anti-IGF-1R antibody H0L0 (antibody, human IgG1, kappa, V domains shown)
VH: QVQLVQSGAEVKKPGASVKVSCKASGYTFTDYYMNWVRQAPGQGLEWMGNINPNNGGTNYNQKFKDRVTMTTDTSTSTAYMELRSLRSDDTAVYYCARWILYYGRSKWYFDVWGRGTLVTVSS
VL: DIVMTQSPLSLPVTPGEPASISCRSSQSIVQSNGDTYLEWYLQKPGQSPQLLIYRVSNRFSGVPDRFSGSGSGTDFTLKISRVEAEDVGVYYCFQGSHVPYTFGQGTKLEIKR
notes: also called HOLO

- binding result [1]: binds
- binding result (recombinant human VEGF): no binding
B12: BPC1020 (antibody, V domains shown)
VH: EVQLVESGGGLVQPGGSLRLSCAASGYTFTSYWLHWVRQAPGKGLEWVGMIDPSNSDTRFNPNFKDRFTISADTSKNTAYLQMNSLRAEDTAVYYCATYRSYVTPLDYWGQGTLVTVSS
VL: DIQMTQSPSSLSASVGDRVTITCKSSQSLLYTSSQKNYLAWYQQKPGKAPKLLIYWASTRESGVPSRFSGSGSGTDFTLTISSLQPEDFATYYCQQYYAYPWTFGQGTKVEIKR

- binding result [2]: binds
- Kd [3]: 1.02 nM
- koff [3]: 0.000508 s⁻¹
- kon [3]: 499000 M⁻¹ s⁻¹
B13: BPC1404 (bispecific antibody, human IgG1, kappa)
heavy: not shown
light: QIVLSQSPAILSASPGEKVTMTCRASSSVSYIHWFQQKPGSSPKPWIYATSNLASGVPVRFSGSGSGTSYSLTISRVEAEDAATYYCQQWTSNPPTFGGGTKLEIKRTVAAPSVFIFPPSDEQLKSGTASVVCLLNNFYPREAKVQWKVDNALQSGNSQESVTEQDSKDSTYSLSSTLTLSKADYEKHKVYACEVTHQGLSSPVTKSFNRGECGSGVQLLESGGGLVQPGGSLRLSCAASGFTFAWYDMGWVRQAPGKGLEWVSSIDWHGEVTYYADSVKGRFTISRDNSKNTLYLQMNSLRAEDTAVYYCATAEDEPGYDYWGQGTLVTVSS
notes: also called RituxanL-GS-DOM474
